{"source": "patent US20210180049A1", "about": "(CHUGAI SEIYAKU KABUSHIKI KAISHA, priority 2013, published 2021)", "molecules": {"B1": {"name": "6RNMSC1-2_F02: antibody binding hIL-6R in the presence of kynurenine; heavy chain SEQ ID NO: 32, light chain SEQ ID NO: 33 (antibody, listed as Homo sapiens, V domains shown)", "VH": "QVQLVQSGAEVKKPGSSVKVSCKASGGTFSSYAISWVRQAPGQGLEWMGGIIPIFGTANYAQKFQGRVTITADESTSTAYMELSSLRSEDTAVYYCARDAPVVARPRGAFDIWGQGTMVTVSS", "VL": "DIVMTQTPLSSPVTLGQPASISCRSSQSLVHSDGNTYLSWLQQRPGQPPRLLIHEISNRFSGVPDRFSGSGAGTNFTLKISRVEAEDVGVYYCMQATQFPRTFGQGTKVEIK"}}, "key": {"hIL-6R": {"target": "T1, hIL-6R (Homo sapiens, UniProt P08887)", "T1 sequence (P08887 20-357 limits assumed)": "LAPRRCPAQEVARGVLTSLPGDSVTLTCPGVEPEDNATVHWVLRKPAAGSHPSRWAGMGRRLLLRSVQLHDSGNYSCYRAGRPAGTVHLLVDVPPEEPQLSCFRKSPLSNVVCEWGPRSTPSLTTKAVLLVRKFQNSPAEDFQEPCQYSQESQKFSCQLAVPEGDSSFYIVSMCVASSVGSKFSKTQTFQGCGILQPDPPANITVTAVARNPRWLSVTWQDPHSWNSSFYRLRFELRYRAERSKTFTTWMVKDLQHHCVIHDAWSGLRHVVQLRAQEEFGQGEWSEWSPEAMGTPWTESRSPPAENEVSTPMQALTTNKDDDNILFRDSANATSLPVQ", "assay": "IgG ELISA for hIL-6R binding under conditions of Table 38", "conditions": "IgG 2.5 μg/mL", "experimental": "The selected six types of antibodies and the 6RNMSC1-2_F02 antibody were subjected to ELISA under the conditions indicated in Table 38.\nFirst, a StreptaWell 96 microtiter plate (Roche) was coated with 100 μL of TBS containing biotin-labeled hIL-6R at room temperature for one or more hours. After removing biotin-labeled hIL-6R that are not bound to the plate by washing each well of the plate with TBST, the wells were blocked with 250 μL of Blocking Buffer (2% skim milk/TBS) for one or more hours. Blocking Buffer was removed from each well. 100 μL each of the purified IgGs prepared to 2.5 μg/mL using TBS under the conditions described in Table 38 were added to the wells, and the plate was allowed to stand at room temperature for one hour to allow each IgG to bind to biotin-labeled hIL-6R in each well. TBST was prepared to make the final concentrations shown in Table 38, and each well was washed with the prepared TBST. HRP-conjugated anti-human IgG antibody (BIOSOURCE) diluted with TBS containing the same small molecules was added to each well. The plate was incubated for one hour. After washing with TBST prepared to the final concentrations shown in Table 38, the chromogenic reaction of the solution in each well added with TMB single solution (ZYMED) was terminated by adding sulfuric acid. Then, the color development was measured by absorbance at 450 nm."}, "[1]": {"target": "T2, human IL-6 receptor (hIL-6R) (Homo sapiens, UniProt P08887)", "T2 sequence (P08887 20-357)": "T1 sequence (P08887 20-357 limits assumed)", "assay": "IgG ELISA for hIL-6R binding in the presence of amino acids and amino acid metabolites (Table 14)", "conditions": "IgG 2.5 μg/mL", "experimental": "Meanwhile, each of the amino acids and metabolites thereof were appropriately prepared at the concentrations shown in Table 14 using the buffers shown in Table 13. The antigen used was biotin-labeled hIL-6R.\nFirst, a StreptaWell 96 microtiter plate (Roche) was coated with 100 μL of PBS containing biotin-labeled antigens at room temperature for one hour or longer. […] 100 μL of each of the purified IgGs prepared at 2.5 μg/mL using Sample Buffer containing small molecules at the final concentrations shown in Table 14 were added to each well, and the plate was let still at room temperature for one hour to allow each IgG to bind to the antigen present in each well. After washing with Wash Buffer containing amino acids and amino acid metabolites at the final concentrations shown in Table 14, HRP-conjugated anti-human IgG antibody (BIOSOURCE) diluted with Sample Buffer containing amino acids and amino acid metabolites was added to each well, and the plate was incubated for one hour. After washing with Wash Buffer containing the respective amino acids and amino acid metabolites, the chromogenic reaction of TMB single solution (ZYMED) added in each well was terminated by adding sulfuric acid. Then, the color development was measured by absorbance at 450 nm."}}}
{"molecule": "B1", "values": [{"measurement": "absorbance under condition 2 or 3 as compared to condition 1 (kynurenine-specific binding to biotin-labeled hIL-6R)", "setting": "hIL-6R", "value": "markedly low"}, {"measurement": "absorbance under condition 5 (3-hydroxy kynurenine solution)", "setting": "[1]; 3-Hydroxykynurenine 1 mM", "value": "high absorbance similarly to that under condition 1"}, {"measurement": "absorbance under condition 7 (no small molecule) compared to condition 1 (kynurenine solution)", "setting": "[1]", "value": "significantly lower"}, {"measurement": "hIL-6R binding in the presence of tryptophan", "setting": "[1]; Tryptophan 1 mM", "value": "does not bind to the antigen hIL-6R"}]}
